Data on one substance can be found in article doi:10.1101/2021.03.17.435802.

One experiment concerns the target ACE2(HH:NN)-Fc (human) (UniProt Q9BYF1). The experiment can be described thus: SPR.
The target of experiment [1] is ACE2(HH:NN)-Fc LALA-PG (human) (UniProt Q9BYF1). Kind of experiment: SPR. On the technique in general: SPR reads the build-up and loss of mass on a sensor chip optically.

Turning to “SARS-CoV-2 S1 B.1.1.7 (from UniProt P0DTC2 14-680) (domain or fragment)”, the fold enhanced affinity (against S1 WT) (in the experiment with ACE2(HH:NN)-Fc (human); in experiment [1]) was 3 fold throughout.
